According to the supplement of paper PMC10065799, “High-throughput profiling of sequence recognition by tyrosine kinases and SH2 domains using bacterial peptide display” (eLife, 2023):

Columns and labels:
[1] = target: c-Src SH2; assay: SH2 binding enrichment of the phosphorylated peptide, bacterial display (enrichment ratio); higher = better substrate or ligand; peptides without Tyr show the background
[2] = target: Grb2 SH2 (UniProt P62993); assay: as above
[3] = target: SHP2-C SH2; assay: as above
[4] = target: Jak2 (UniProt O60674); assay: phosphorylation enrichment, bacterial display (enrichment ratio); higher = better substrate or ligand; peptides without Tyr show the background
[5] = target: EPHB1 (UniProt P54762); assay: as above
[6] = target: EPHB2 (UniProt P29323); assay: as above
[7] = target: MERTK (UniProt Q12866); assay: as above
[8] = tested on: Fer (mouse); assay: as above
[9] = target: Fes (UniProt P07332); assay: as above
[10] = tested on: c-Abl (mouse); assay: as above
[11] = target: Hck (UniProt P08631); assay: as above
[12] = target: FGFR1 (UniProt P11362); assay: as above
[13] = target: Fyn (UniProt P06241); assay: as above
[14] = tested on: c-Src; assay: as above
[15] = target: FGFR3 (UniProt P22607); assay: as above
[16] = tested on: AncSZ; assay: as above
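Throughout, for SH2 binding enrichment of the phosphorylated peptide, bacterial display: peptide library displayed on the E. coli surface as eCPX fusions, selected cells deep-sequenced, score is each peptide's frequency after selection divided by its frequency in the input.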
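Throughout, for phosphorylation enrichment, bacterial display: 11-residue human phosphosite peptides and single-mutation variants displayed on the E. coli surface, counted by deep sequencing, each peptide's frequency after selection divided by its frequency in the unselected input library; frequency after pTyr selection over input frequency; kinase dosed for 20-30% of maximal phosphorylation in three min.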

Chain of EPHB1 (P54762 whole entry, looked up): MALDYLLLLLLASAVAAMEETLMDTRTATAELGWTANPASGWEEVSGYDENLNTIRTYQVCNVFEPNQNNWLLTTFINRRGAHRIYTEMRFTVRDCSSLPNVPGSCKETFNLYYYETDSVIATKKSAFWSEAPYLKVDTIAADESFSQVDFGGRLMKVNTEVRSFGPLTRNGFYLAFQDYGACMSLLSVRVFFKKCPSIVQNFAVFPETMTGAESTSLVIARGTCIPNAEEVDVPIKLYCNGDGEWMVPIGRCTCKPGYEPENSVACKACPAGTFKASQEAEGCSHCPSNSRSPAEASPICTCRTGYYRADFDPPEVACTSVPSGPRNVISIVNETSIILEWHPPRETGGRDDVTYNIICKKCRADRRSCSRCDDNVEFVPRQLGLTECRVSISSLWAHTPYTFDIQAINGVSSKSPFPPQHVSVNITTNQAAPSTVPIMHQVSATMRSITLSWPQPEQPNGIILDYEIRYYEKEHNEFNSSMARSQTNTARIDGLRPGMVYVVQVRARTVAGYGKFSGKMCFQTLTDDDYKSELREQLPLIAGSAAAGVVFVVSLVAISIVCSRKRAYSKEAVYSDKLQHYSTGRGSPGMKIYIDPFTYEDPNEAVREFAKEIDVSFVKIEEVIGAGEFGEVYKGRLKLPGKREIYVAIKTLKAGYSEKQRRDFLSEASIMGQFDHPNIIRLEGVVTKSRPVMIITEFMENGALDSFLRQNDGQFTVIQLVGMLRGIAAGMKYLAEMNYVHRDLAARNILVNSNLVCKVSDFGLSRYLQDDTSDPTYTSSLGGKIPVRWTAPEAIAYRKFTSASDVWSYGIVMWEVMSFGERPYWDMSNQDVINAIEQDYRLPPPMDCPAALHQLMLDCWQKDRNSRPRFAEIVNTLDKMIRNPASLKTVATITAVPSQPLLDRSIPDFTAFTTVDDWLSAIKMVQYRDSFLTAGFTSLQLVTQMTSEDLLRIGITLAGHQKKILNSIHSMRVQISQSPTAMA
Chain of FGFR1 (P11362 whole entry, looked up): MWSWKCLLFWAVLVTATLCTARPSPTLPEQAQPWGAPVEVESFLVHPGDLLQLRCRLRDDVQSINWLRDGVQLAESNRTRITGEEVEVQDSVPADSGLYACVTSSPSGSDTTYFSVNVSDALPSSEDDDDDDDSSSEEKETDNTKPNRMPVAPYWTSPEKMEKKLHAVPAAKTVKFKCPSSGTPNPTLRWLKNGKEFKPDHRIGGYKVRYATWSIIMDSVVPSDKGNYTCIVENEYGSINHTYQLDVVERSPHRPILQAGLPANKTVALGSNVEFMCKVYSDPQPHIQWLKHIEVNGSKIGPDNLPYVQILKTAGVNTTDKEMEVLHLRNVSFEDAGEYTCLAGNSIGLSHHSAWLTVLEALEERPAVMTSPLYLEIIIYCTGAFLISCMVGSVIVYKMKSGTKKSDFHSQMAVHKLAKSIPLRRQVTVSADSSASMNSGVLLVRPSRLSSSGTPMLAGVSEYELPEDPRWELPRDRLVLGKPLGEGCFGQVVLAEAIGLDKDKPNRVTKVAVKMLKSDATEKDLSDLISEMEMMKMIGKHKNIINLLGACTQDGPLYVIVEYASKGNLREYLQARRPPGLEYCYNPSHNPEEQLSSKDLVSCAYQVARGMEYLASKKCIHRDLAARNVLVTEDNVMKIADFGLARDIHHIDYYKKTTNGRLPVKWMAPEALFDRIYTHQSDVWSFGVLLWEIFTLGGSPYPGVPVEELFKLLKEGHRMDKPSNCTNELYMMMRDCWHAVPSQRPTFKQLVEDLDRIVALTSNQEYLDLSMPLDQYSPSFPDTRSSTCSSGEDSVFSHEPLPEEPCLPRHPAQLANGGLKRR
Chain of Fyn (P06241 whole entry, looked up): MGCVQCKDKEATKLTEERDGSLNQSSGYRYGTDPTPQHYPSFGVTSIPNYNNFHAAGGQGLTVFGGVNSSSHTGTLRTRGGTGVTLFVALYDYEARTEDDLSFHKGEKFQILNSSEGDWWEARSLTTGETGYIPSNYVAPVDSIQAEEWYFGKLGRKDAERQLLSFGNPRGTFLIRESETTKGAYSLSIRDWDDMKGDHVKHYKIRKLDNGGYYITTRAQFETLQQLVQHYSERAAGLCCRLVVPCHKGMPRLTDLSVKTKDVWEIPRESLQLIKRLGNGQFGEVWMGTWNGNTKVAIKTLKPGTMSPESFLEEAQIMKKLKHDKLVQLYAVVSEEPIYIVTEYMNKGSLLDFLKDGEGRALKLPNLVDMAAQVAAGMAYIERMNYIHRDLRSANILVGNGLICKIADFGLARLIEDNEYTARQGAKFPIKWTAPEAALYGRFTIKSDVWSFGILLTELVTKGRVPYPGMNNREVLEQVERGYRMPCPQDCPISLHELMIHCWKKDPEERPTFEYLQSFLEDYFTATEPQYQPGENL
Chain of MERTK (Q12866 whole entry, looked up): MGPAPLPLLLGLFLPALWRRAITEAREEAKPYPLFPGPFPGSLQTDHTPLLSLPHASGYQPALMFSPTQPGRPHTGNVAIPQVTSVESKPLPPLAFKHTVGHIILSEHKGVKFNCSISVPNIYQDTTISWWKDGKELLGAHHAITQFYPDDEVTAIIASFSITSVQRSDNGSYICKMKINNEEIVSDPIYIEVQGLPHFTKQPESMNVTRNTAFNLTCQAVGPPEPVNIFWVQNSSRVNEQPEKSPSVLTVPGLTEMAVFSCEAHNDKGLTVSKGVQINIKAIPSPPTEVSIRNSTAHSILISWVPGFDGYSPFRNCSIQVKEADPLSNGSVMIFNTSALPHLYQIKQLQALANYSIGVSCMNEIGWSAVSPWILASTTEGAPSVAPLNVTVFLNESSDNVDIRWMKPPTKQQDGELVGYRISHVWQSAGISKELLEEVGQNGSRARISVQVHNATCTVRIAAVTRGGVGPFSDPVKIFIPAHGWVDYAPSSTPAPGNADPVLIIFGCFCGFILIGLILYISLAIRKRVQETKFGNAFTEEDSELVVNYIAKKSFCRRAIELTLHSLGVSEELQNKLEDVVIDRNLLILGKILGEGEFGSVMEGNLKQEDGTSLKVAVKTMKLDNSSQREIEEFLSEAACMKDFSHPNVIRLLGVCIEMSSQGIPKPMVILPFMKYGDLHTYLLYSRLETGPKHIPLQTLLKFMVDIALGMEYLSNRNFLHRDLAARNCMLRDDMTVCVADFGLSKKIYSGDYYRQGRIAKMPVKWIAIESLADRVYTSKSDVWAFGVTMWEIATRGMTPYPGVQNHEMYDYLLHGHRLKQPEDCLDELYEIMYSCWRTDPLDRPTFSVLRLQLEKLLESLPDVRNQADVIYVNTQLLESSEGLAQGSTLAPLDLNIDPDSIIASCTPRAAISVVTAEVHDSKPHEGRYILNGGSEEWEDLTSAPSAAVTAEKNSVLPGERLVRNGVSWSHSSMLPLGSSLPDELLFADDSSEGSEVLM
Chain of Fes (P07332 whole entry, looked up): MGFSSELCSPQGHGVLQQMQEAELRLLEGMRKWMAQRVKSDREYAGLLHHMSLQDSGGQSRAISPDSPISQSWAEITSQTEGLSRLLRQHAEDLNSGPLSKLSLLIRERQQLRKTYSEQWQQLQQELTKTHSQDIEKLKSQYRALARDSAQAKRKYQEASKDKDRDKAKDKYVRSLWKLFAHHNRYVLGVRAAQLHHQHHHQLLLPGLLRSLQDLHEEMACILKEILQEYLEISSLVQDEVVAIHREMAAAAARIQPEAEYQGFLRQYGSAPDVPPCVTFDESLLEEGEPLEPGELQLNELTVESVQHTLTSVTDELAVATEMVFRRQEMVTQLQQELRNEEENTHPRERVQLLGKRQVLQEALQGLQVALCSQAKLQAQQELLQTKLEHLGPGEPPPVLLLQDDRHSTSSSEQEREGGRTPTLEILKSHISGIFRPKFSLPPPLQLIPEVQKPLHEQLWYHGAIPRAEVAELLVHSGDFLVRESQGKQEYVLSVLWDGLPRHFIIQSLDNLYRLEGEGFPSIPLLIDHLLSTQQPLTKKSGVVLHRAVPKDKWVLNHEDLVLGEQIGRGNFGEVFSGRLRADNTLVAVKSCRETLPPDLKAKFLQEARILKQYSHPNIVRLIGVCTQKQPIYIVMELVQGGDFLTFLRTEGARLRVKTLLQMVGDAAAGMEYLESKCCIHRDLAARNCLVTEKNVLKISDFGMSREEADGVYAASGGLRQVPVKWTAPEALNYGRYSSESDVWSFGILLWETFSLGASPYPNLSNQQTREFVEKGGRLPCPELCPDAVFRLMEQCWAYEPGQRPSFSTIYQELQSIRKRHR
Chain of Hck (P08631 whole entry, looked up): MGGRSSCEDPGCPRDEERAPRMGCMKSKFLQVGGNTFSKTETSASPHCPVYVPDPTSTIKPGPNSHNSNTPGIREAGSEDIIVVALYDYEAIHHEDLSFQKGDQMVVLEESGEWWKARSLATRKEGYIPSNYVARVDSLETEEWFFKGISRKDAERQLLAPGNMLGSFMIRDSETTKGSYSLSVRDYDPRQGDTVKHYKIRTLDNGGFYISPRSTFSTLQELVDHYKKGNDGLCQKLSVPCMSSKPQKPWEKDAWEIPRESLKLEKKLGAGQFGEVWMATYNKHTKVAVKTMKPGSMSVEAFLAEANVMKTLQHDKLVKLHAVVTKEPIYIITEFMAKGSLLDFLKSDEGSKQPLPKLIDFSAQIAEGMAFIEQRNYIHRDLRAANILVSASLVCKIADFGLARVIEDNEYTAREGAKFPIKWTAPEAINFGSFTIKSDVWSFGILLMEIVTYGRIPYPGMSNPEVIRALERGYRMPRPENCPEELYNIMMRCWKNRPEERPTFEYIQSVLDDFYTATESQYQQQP
Chain of Grb2 SH2 (P62993 whole entry, looked up): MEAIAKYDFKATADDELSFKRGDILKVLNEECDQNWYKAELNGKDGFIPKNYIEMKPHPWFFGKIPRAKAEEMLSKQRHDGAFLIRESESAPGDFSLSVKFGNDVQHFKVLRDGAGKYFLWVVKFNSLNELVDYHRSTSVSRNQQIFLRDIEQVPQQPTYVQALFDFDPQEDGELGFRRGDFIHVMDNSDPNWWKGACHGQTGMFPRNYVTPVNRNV

Sequence | SH2 binding enrichment [1] | SH2 binding enrichment [2] | SH2 binding enrichment [3] | phosphorylation enrichment [4] | phosphorylation enrichment [5] | phosphorylation enrichment [6] | phosphorylation enrichment [7] | phosphorylation enrichment [8] | phosphorylation enrichment [9] | phosphorylation enrichment [10] | phosphorylation enrichment [11] | phosphorylation enrichment [12] | phosphorylation enrichment [13] | phosphorylation enrichment [14] | phosphorylation enrichment [15] | phosphorylation enrichment [16]
VGNAAYQAGPL [STK36_Y1181] | 0.42 | 0.774 | 0.499 | 0.592 | 0.358 | 0.437 | 0.386 | 0.392 | 0.556 | 0.531 | 0.378 | 0.407 | 0.458 | 0.429 | 0.472 | 0.553
VHNLDYYKKTT [FGFR3_Y647] | 0.389 | 0.796 | 0.556 | 0.469 | 0.428 | 0.474 | 0.414 | 0.394 | 0.624 | 0.443 | 0.408 | 0.369 | 0.39 | 0.371 | 0.771 | 0.527
VHVEVYDPPSP | 0.708 | 0.736 | 0.548 | 1.27 | 0.749 | 0.572 | 0.775 | 0.758 | 1.3 | 0.949 | 0.833 | 0.672 | 0.794 | 0.719 | 0.826 | 1.65
VIEQSYNETWL [SLC2A4_Y56] | 0.535 | 0.713 | 0.68 | 1.1 | 0.567 | 0.645 | 0.436 | 1.25 | 1.23 | 0.803 | 0.512 | 0.621 | 0.558 | 0.572 | 0.827 | 1.17
VIKDKYPKVRY [APTX_Y209_A212V] | 1.05 | 1.19 | 1.16 | 0.693 | 0.414 | 0.437 | 0.35 | 0.402 | 0.667 | 0.577 | 0.466 | 0.441 | 0.365 | 0.487 | 0.449 | 0.448
VKFGAYINDFK [GLB1_Y488_N484K_YF] | 1.3 | 4.55 | 1.06 | 1.05 | 0.596 | 0.572 | 0.412 | 0.406 | 1.02 | 0.737 | 0.523 | 0.466 | 0.431 | 0.468 | 0.879 | 0.839
VKGGAYFPVTV [MCCC2_Y145_YF] | 0.601 | 0.699 | 0.642 | 0.807 | 0.372 | 0.444 | 0.692 | 0.419 | 0.601 | 0.522 | 0.431 | 0.713 | 0.396 | 0.386 | 0.602 | 0.703
VKGGAYYPVTV [MCCC2_Y145] | 0.715 | 0.955 | 0.8 | 2.65 | 0.331 | 0.551 | 4.41 | 0.819 | 0.822 | 0.609 | 0.607 | 5.39 | 0.423 | 0.445 | 3.75 | 0.582
VKPENYRRQDI [VHL_Y175_L178Q] | 0.494 | 0.862 | 0.607 | 0.469 | 0.274 | 0.367 | 0.379 | 0.304 | 0.504 | 0.465 | 0.309 | 0.343 | 0.344 | 0.365 | 0.4 | 0.475
VLTSKYLGGGG [HBA1_Y141_R142L] | 0.456 | 0.824 | 0.695 | 0.444 | 0.292 | 0.326 | 0.347 | 0.264 | 0.461 | 0.375 | 0.32 | 0.448 | 0.275 | 0.334 | 0.308 | 0.382
VMSGPYNLKAL [IL1B_Y140_E141N] | 0.545 | 0.886 | 0.622 | 0.959 | 0.534 | 0.475 | 0.507 | 0.508 | 0.765 | 0.643 | 0.473 | 0.569 | 0.596 | 0.758 | 0.556 | 0.888
VNFGAYINNFK [GLB1_Y488_D491N_YF] | 0.589 | 0.834 | 0.803 | 0.662 | 0.566 | 0.635 | 0.362 | 0.579 | 0.912 | 0.535 | 0.523 | 0.535 | 0.463 | 0.391 | 0.689 | 1.03
VNLVLYLSIAK [FBXO15_Y496] | 0.426 | 0.829 | 0.388 | 1.28 | 0.438 | 0.628 | 0.572 | 0.443 | 1.73 | 1.25 | 0.527 | 0.581 | 0.462 | 0.512 | 0.867 | 1.13
VPANRYDLLCL [FARSB_Y72] | 3.03 | 0.831 | 0.907 | 0.873 | 0.58 | 0.654 | 0.514 | 0.486 | 0.985 | 0.773 | 0.458 | 0.493 | 0.469 | 0.487 | 0.725 | 0.808
VPDANYTSDEE [STK33_Y439] | 0.726 | 0.885 | 1.11 | 1.19 | 0.649 | 0.801 | 0.621 | 0.658 | 1.38 | 2.42 | 0.61 | 0.699 | 0.701 | 0.586 | 0.796 | 1.54
VQSASYLNACL [MCM3AP_Y864] | 0.555 | 1.11 | 0.694 | 0.674 | 0.418 | 0.473 | 0.46 | 0.47 | 0.813 | 0.645 | 0.384 | 0.381 | 0.419 | 0.495 | 0.551 | 0.759
VRKRSYSAGNA [KANK1_Y324] | 0.343 | 0.665 | 0.398 | 0.441 | 0.495 | 0.436 | 0.444 | 0.457 | 0.621 | 0.564 | 0.48 | 0.396 | 0.441 | 0.519 | 0.492 | 0.615
VRSNHYAPEED [TJP1_Y1346_D1347A] | 0.695 | 1 | 0.893 | 0.955 | 0.529 | 0.611 | 0.462 | 0.469 | 0.984 | 0.728 | 0.498 | 0.426 | 0.473 | 0.434 | 0.605 | 0.941
VSSIPYGQPKQ [NEU1_Y251_G248S] | 0.339 | 0.79 | 0.575 | 0.844 | 0.555 | 0.345 | 0.425 | 0.324 | 0.605 | 0.464 | 0.493 | 0.39 | 0.338 | 0.447 | 0.41 | 0.549
VTAVAYRLAEQ [HK1_Y461] | 0.782 | 0.828 | 0.604 | 0.543 | 0.47 | 0.424 | 0.349 | 0.446 | 0.792 | 0.509 | 0.475 | 0.495 | 0.473 | 0.385 | 0.584 | 0.633
VVCKNYAEAKD [ALB_Y343_D338V] | 0.647 | 0.852 | 0.807 | 0.875 | 0.515 | 0.581 | 0.457 | 0.5 | 1.1 | 0.785 | 0.519 | 0.482 | 0.512 | 0.477 | 0.693 | 0.932
VVGMLYVGRLP [LAMA2_Y2886_G2889R] | 0.561 | 0.926 | 0.987 | 0.98 | 0.481 | 0.643 | 0.426 | 0.552 | 1.04 | 0.654 | 0.455 | 0.647 | 0.442 | 0.422 | 0.602 | 1.22
VVLEDYLDIKH [CLCNKB_Y138_N143H] | 0.54 | 0.76 | 0.575 | 0.959 | 0.782 | 0.66 | 0.506 | 0.506 | 1.3 | 0.716 | 0.534 | 1.24 | 0.419 | 0.458 | 1.05 | 1.25
VVQGLYKSMRK [KBTBD2_Y250_P254R] | 0.462 | 0.68 | 0.652 | 0.522 | 0.397 | 0.432 | 0.482 | 0.372 | 0.464 | 0.519 | 0.351 | 0.403 | 0.421 | 0.391 | 0.358 | 0.628
VVTGLYEKPSL [KIR3DS1_Y221] | 0.859 | 0.722 | 0.461 | 0.623 | 4.21 | 7.7 | 9.59 | 13.2 | 0.66 | 17.3 | 6.03 | 0.456 | 2.3 | 1.05 | 0.537 | 1.36
VWALTYCDLHK [KCNH2_Y827_R823W] | 0.655 | 0.884 | 0.791 | 1.49 | 1.75 | 0.76 | 0.507 | 0.594 | 1.32 | 0.809 | 0.632 | 0.823 | 0.605 | 1.2 | 0.967 | 1.28
VYLGAYDHFLP [SLC22A5_Y486_R488H] | 0.757 | 0.755 | 4.29 | 1.39 | 4.38 | 7.25 | 9.45 | 7.24 | 1.25 | 2.69 | 5.47 | 1.6 | 6.16 | 6.2 | 1.62 | 2.28
VYSATYHPDHW [EFCAB12_Y544_P541S] | 0.634 | 0.97 | 0.788 | 1.05 | 1.06 | 1.13 | 10.3 | 4.14 | 1.24 | 2.06 | 5.4 | 1.33 | 6.37 | 5.17 | 1.18 | 1.02
VYSTDYYRVGG [NTRK2_Y706] | 0.719 | 0.92 | 0.687 | 10 | 8.68 | 7.13 | 11 | 1.22 | 0.902 | 1.49 | 4.61 | 15.3 | 5.13 | 4.67 | 11.8 | 2.94
